Paper PMC12300839, “Noncovalently Immobilized Glucose Oxidase/Horseradish Peroxidase Cascade on Polyamide Supports for Eco-Friendly Polyaniline Synthesis” (Molecules, 2025)

Substrate: OC[C@H]1OC(O)[C@H](O)[C@@H](O)[C@@H]1O
Test: purified protein
Format: biochemical, Aspergillus niger
Conditions: apparent Km of the whole free GOx/HRP cascade, not of isolated GOx, authors call the kinetics governed by HRP, glucose 50-150 µM, dissolved O2, constant TMB, 0.1 M acetate pH 4.5, room temperature

B1: glucose oxidase (GOx) (Aspergillus niger) (protein)
chain: LPHYIRSNGIEASLLTDPKDVSGRTVDYIIAGGGLTGLTTAARLTENPNISVLVIESGSYESDRGPIIEDLNAYGDIFGSSVDHAYETVELATNNQTALIRSGNGLGGSTLVNGGTWTRPHKAQVDSWETVFGNEGWNWDNVAAYSLQAERARAPNAKQIAAGHYFNASCHGVNGTVHAGPRDTGDDYSPIVKALMSAVEDRGVPTKKDFGCGDPHGVSMFPNTLHEDQVRSDAAREWLLPNYQRPNLQVLTGQYVGKVLLSQNGTTPRAVGVEFGTHKGNTHNVYAKHEVLLAAGSAVSPTILEYSGIGMKSILEPLGIDTVVDLPVGLNLQDQTTATVRSRITSAGAGQGQAAWFATFNETFGDYSEKAHELLNTKLEQWAEEAVARGGFHNTTALLIQYENYRDWIVNHNVAYSELFLDTAGVASFDVWDLLPFTRGYVHILDKDPYLHHFAYDPQYFLNELDLLGQAAATQLARNISNSGAMQTYFAGETIPGDNLAYDADLSAWTEYIPYHFRPNYHGVGTCSMMPKEMGGVVDNAARVYGVQGLRVIDGSIPPTQMSSHVMTVFYAMALKISDAILEDYASMQ
notes: commercial native enzyme, type VIII (Merck/Sigma Aldrich), free in solution, ~160 kDa, FAD-containing
Km: 275 µM | Vmax: 696 µM/min/mg
